Measurements from US20130115216A1.

Tests used:
[1] = molecular target: HLA-A2 (HLA-A*0201) (human); assay: assembly assay, HLA-A2 recovery from T2 cell lysate
[2] = molecular target: HLA-A2 (HLA-A*0201) (human); assay: assembly assay, HLA-A2 recovery from TAP-deficient cell lysate

C1 (HIV-1 pol476-484) (peptide; other documents disagree on this pair)
C50 [1]: 0.7 µM | C50 [2]: 0.2 µM
